Results from paper PMC8840716, “Functional Antagonism of WRI1 and TCP20 Modulates GH3.3 Expression to Maintain Auxin Homeostasis in Roots”.
Where a chain is given by its changes, count along the chain named.

B1: proGH3.3 probe 2 (dsDNA)
DNA 1: ATGTCTGCCCAAAACTAGCCAAAGATTACGTGACCGCGGTCCCTCTTGTCC
DNA 2: GGACAAGAGGGACCGCGGTCACGTAATCTTTGGCTAGTTTTGGGCAGACAT
B2: proGH3.3 probe 2M (dsDNA)
DNA 1: B1 DNA 1 with G38A, G39A, C41A, C42A, C43A, C45A
DNA 2: B1 DNA 2 with G7T, G9T, G10T, G11T, C13T, C14T
B3: proGH3.3 probe 1 (dsDNA)
DNA 1: TCTAACGATAACAAACCGAGCCCACTTTTATGTCGACGTGGAATTTGGCT
DNA 2: AGCCAAATTCCACGTCGACATAAAAGTGGGCTCGGTTTGTTATCGTTAGA
B4: proGH3.3 probe 1M (dsDNA)
DNA 1: B3 DNA 1 with G18A, C21A, C22A, C23A, C25A
DNA 2: B3 DNA 2 with G26T, G28T, G29T, G30T, C33T
B5: proGH3.3 probe 4 (dsDNA)
DNA 1: CTATATATTTTTAATATTTAGGTCCCATTAAATCAGTTTGTGATTTCAGA
DNA 2: TCTGAAATCACAAACTGATTTAATGGGACCTAAATATTAAAAATATATAG
B6: proGH3.3 probe 4M (dsDNA)
DNA 1: B5 DNA 1 with G21A, G22A, C24A, C25A, C26A
DNA 2: B5 DNA 2 with G25T, G26T, G27T, C29T, C30T
B7: proGH3.3 probe 3 (dsDNA)
DNA 1: GACATATCAGTCCCACATGTCTGCCCAAAACTAGCCAAAGATTACGTGACC
DNA 2: GGTCACGTAATCTTTGGCTAGTTTTGGGCAGACATGTGGGACTGATATGTC
B8: proGH3.3 probe 3M (dsDNA)
DNA 1: B7 DNA 1 with G10A, C12A, C13A, C14A, C16A
DNA 2: B7 DNA 2 with G36T, G38T, G39T, G40T, C42T

What was measured:
[1] = target: T1, AtWRI1 1-302 (UniProt Q6X5Y6 1-302); assay: EMSA; 15 mM HEPES-KOH pH 7.5, 7.5 mM KCl, 0.5 mM EDTA, 5% glycerol, 2 mM DTT, 1 ug/uL BSA, 0.05 ug/uL poly(dI-dC), 2 fmol/uL probe, ~1 pmol His-TCP20 in 20 uL, room temperature 30 min; details: protein: recombinant; tags: N-terminal 6xHis (pNIC28-Bsa4); label: 5' biotin
T1 sequence (Q6X5Y6 1-302): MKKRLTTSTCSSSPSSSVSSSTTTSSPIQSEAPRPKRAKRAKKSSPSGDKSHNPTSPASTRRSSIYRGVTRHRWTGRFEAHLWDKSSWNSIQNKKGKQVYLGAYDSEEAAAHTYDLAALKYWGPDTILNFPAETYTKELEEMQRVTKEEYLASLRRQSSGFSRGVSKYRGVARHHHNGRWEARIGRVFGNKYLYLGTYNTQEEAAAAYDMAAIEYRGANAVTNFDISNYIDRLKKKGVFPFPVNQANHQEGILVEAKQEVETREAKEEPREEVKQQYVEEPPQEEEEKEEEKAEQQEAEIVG

[2] = target: T2, TCP20 (UniProt Q9LSD5 1-314); assay: as above; details: protein: recombinant; tags: 6xHis (pET41a-6xHis); chain copies: 2; label: 5' biotin
T2 sequence (Q9LSD5 whole entry): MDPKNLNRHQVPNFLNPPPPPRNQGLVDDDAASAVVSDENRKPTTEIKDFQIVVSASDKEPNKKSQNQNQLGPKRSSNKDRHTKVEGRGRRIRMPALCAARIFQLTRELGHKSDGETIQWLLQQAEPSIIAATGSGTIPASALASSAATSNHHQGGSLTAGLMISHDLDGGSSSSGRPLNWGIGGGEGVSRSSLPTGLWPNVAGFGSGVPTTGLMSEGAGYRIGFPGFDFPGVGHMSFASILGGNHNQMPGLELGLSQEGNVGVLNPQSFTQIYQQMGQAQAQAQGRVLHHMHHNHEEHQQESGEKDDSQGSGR

[3] = target: T1, AtWRI1 1-302; assay: EMSA; equal affinity to probe 2; 15 mM HEPES-KOH pH 7.5, 7.5 mM KCl, 0.5 mM EDTA, 5% glycerol, 2 mM DTT, 1 ug/uL BSA, 0.05 ug/uL poly(dI-dC), 2 fmol/uL probe, ~1 pmol His-TCP20 in 20 uL, room temperature 30 min; details: protein: recombinant; tags: N-terminal 6xHis (pNIC28-Bsa4); label: 5' biotin
[4] = target: T1, AtWRI1 1-302; assay: EMSA; equal affinity to probe 1; 15 mM HEPES-KOH pH 7.5, 7.5 mM KCl, 0.5 mM EDTA, 5% glycerol, 2 mM DTT, 1 ug/uL BSA, 0.05 ug/uL poly(dI-dC), 2 fmol/uL probe, ~1 pmol His-TCP20 in 20 uL, room temperature 30 min; details: protein: recombinant; tags: N-terminal 6xHis (pNIC28-Bsa4); label: 5' biotin
[5] = target: T2, TCP20; assay: EMSA; plus AtWRI1 1-302, 0.53-2.12 pmol (no reduction); 15 mM HEPES-KOH pH 7.5, 7.5 mM KCl, 0.5 mM EDTA, 5% glycerol, 2 mM DTT, 1 ug/uL BSA, 0.05 ug/uL poly(dI-dC), 2 fmol/uL probe, ~1 pmol His-TCP20 in 20 uL, room temperature 30 min; details: protein: recombinant; tags: 6xHis (pET41a-6xHis); chain copies: 2; label: 5' biotin
[6] = target: T1, AtWRI1 1-302; assay: EMSA; equal affinity to probe 3; 15 mM HEPES-KOH pH 7.5, 7.5 mM KCl, 0.5 mM EDTA, 5% glycerol, 2 mM DTT, 1 ug/uL BSA, 0.05 ug/uL poly(dI-dC), 2 fmol/uL probe, ~1 pmol His-TCP20 in 20 uL, room temperature 30 min; details: protein: recombinant; tags: N-terminal 6xHis (pNIC28-Bsa4); label: 5' biotin

Binder	binding result [1]	binding result [2]	further results
B1	binds	binds	
B2		no binding	binding result [3]: binds
B3	binds	binds	
B4		no binding	binding result [4]: binds
B5			binding result [5]: binds
B6		no binding	
B7	binds		binding result [5]: binds
B8		no binding	binding result [6]: binds
